In the domain aggregation screens of Martell et al. (2025):

assay: soluble fraction after stress (log2 fold change); higher = more stays soluble; pooled small domains, quantitative proteomics; details: stress: pH 4
In short: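 Values are on a log2 scale, where higher means more of the domain stayed soluble after pH 4 stress. They are fold changes in the soluble amount of each domain from pooled custom libraries, measured by high-throughput quantitative proteomics. The fold change is taken to reflect aggregation propensity.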

| Sequence | soluble fraction (log2) |
| --- | --- |
| HMEPLVSKVFQVSYQKTADLVALIKSEDSKLLSARGTLISDERTSQIFVQDTPTRLERISMIVNGL | -0.895 |
| HMPEQLLNTRIPLEFAGRRFDASLAELFPDYSRSRLAAWIKDGAARLDGETVAPRHTVRGGEQVEILVRM | -0.13 |
| HMAEMLENQLKHAKSKQEANEYIAAAIGGVSDDDPDKEYLVAAYNEISKEFHHSSAYHRLPDT | ≥ 0.43 |
| HMQVITEPFQEKYREFINMSTVTQRLEERETLSFTAQTVEGRWLTIIIVPQGYDKTGKLSTVLVANR | 0.111 |
| HMLETIDIFKVTGGEPFLSKDFLEILDLAIEKDLAKNITLMITTNASKFVKKILDKFIHFKRVEFTVS | -1.05 |
| HMDTSADEVKQLIASFVEQEDKRKPLSDQKIVELLAEKEQKISRRTVAKYRDALNIPSSSKRKRF | -0.141 |
| HMAAYRLIPLGNSNKDFETYQEAIQYMRDKLDESSKAFEEGKQNWVYSGRVYGVPWSDGRTTFTVDLVPKV | 0.0755 |
| HMKFPNVGENLRLLRQEMGISLDKASKMTGVSKAMLGQIERGESSPTVSTLWKISSGFKINFTTLLSE | 0.224 |
| HMNDIQIILQEAVARLPKKQQLVFNMKYFDHLKYQEISEILGTSVGGLKASYFQAVKKIENYIINKH | 0.0158 |
| HMSSIGERISDVRKARGYTQDQLAERIHVSRQTISHWENERALPDFESIKQLSQVLGYDFSS | 0.0836 |
| HMDVNPETLSYYIERADISLDELRTSVKGIDLFLTGEKQPTFNQISNIAKKLNIPTGLLLINKPIEI | -1.37 |
| HMDLPDYYFRVRENGAVVFRVGTENRQRRIEMVEIATVNVKNGNIKPHGEVDLTKADRLAIGEWLAARQAQ | -0.27 |
| HMEKGNEEALEQAREAILAVQSGEKYVDLDPANAAIRRKQHALAQASDLVSQSYGKDPNRYVRIFR | 0.367 |
| HMPSEQGANKARDIIFRHHMKVDVWVGSWENARNYAEQAIKQGVKVIISRGGTAALLRHSLDTAIIKVR | 0.22 |
| HMIDRADLWEALRKLPEDTLKLFSLHFEKGMTHDEISKHTDIPVGTVKTKLRRGLIEARKLAREF | -0.394 |
| HMEKLIRIKRLIKQLNEYRDSYYNEARPVVSDAAYDKLFDELSELEKETGVVYANSPTQTVG | -0.457 |
| HMDEVHYLADKERGTTWEEILIHADRDIKFLSLSATINNKNEFLEWLVSLRGTTSLIHSSTRPIPLEI | -0.682 |
| HMKTRIQDLRKELGVTQSELADAVDVTRQTIISLEGGRYKASLVLAHKLAQFFHVTIEELFIFD | -0.918 |
| HMGIAEGSSVFVRVLAAEDGGRYTVSFAGRRFSVLSRQALGIGSAFRADVKVEKGQVLLVPR | -0.348 |
| HMSVLQGLIESFKAGDRNLYEVAERLNVTEPFLAEALKDYRARFPKGVQVDNFWISFRPYLTIAEV | -0.886 |
| HMSHLTKKQEEVLLFIRDYYEEEGRSPSYSDIQHHFGLKSKSSVQDYIGYLKKAGFLQKSVGSRAIELV | ≥ 0.43 |
| HMGSREVPFSDFISKVESGSVLEVVLRGRQVEGLTDANERFQTQIPNYPALFEILERNQVRTRVEPT | -0.814 |
| HMWAVDFVLLDKDDQRIGNAVAYRDDRTKGMDEEVYRTVPEEELYASTGIQKQIFNSIYQLMAWKK | -1.25 |
| HMIRILIVDDSAFMRKLLSDVFEEDKNFVVVDTARNGQDAVEKVKRLKPDLVTMDVEMPVMDGLTAVEIIM | -1.12 |
| HMVLMPIDALRGSSSSSEMRIAAVKFSPSKGWYFSLQERSDEGSSYYEQKVASDGSVSERVKVR | -0.69 |
| HMQFYSGLEARLMDPNTPEVFDDPISLMAFLQQKNISRVELEDNLLLPYLKEMAGQPIPKAELLEIIRK | -2.19 |

| Sequence | soluble fraction (log2) |
| --- | --- |
| HMDDILAYEIEDKEDLENLSLGKSIGINLNKLIKPTLNSFDNSLLFLSKKGNIISYGKLNGDLFKPKKVL | -0.454 |
| HMINGTITFYDDTTLKGELSSLDTKYLFIIPNGLVMPEKIAVSDIEYFNLDNGITLIQDGISKQTY | -1.11 |
| HMAKLTPDQQELRAIRIELQMSQPDFADAININVPRLSSYEYGRTAGVPTSIMEAARELKRSMSR | -0.324 |
| HMEELPIIVAQRFLNIFRQLHIFSDERREAFNKMLLELPPEVKSIFQSLPGGTPLQEYMEDLEQKSK | -0.262 |
| HMKLTKPKLIQLIHIAKSKLNMDELSYRVLLDNLTGKTSTTKMTVGELLKVYESMKDKGFKPQV | 0.104 |
| HMTDSLELADLLRRAIITGEYKPRERLVEMELAQKYSVSRTPVREALKHLEALGLVKMERYKGAMVAD | -0.573 |
| HMAGAITEREVEVLELLSRGLGNKEIAKELFVSEATVKSHLSHIYTKLAVDTRAGAVAAAIERRIIRAWR | -0.388 |
| HMDSLSGQQGRVLEEINGFLQTGKVLLNGMEWSAVSKQPEDILPVDTEVVVVRVEGAHLVVKKA | -0.488 |
| HMGAVVSPMPGVILDIKVKEGDSVSEGQTVIILEAMKMENEIVSEFTGTVSAIRVKKGDTVDTDAVLVEI | -1.04 |
| HMDRGDVTREALIKAAIEIFGRDGFHAASTRAIAERAGANQALIGYHFRGKLGLYHATFEYIIGKI | -0.474 |
| HMGGFSVTAEAFDGTPEVGKTVGFTAGSTKIKVEDTKGDATFGTILEKETVGFGEGKYTYFYIGL | -0.276 |
| HMRISLKAQVYEYLKQAIINGDLKVGEIYSEQYFADKLSISRTPVREAILQLQHENMVEVKANRGIIVK | -0.406 |
| HMENEFEAYSDGSSIQLNDPSKATYVVFDRQGRLLHLFQNHSLSSLSIERKNQILIITRETADGVSVKKIV | -0.167 |
| HMLKLTDRQKVILSILMSDGEKTASWIASQLGVGLRSVQLDLSYLRNNGFIKKASKSTHSAWIVLKK | 0.205 |
| HMTTYTGVVTGSGVNVRSGAGTSYPVVGSKTMGDVVTITETVSADGMIWGKIDIGWISMNYVRM | -0.434 |
| HMDSESGAIIRRAVAQLAPKFRSTIVLRLIEGYSTEETAQILQLPVGTVLSRLARAKVQLMNLLTPYKEL | -0.0277 |
| HMAPVTPEERAQAMEEYKAMVTIEGYTPPKNIIEQNYKRGLWSETMLNMAVTKGAITEAEKLEIMN | 0.0947 |
| HMPESETIMVDVKGAVQSEGVYELPSTARVNDAIEAAGGFSDQADKKSVNLAQKLSDEAVVYVASQGENV | -0.28 |
| HMKTAWDELNEVIEAYRGQESALIEVLHKAQEIMGYLPRDVQEAIAEGLHVPLNKVYGVVSFYHHFSV | -0.204 |
| HMNYSIVNVGFNNKSLFLRSAPGYSASRLLLPFATERAFVRETLSNGWSRVIVRGTEGYLPTEYVAD | -0.553 |
| HMSGYFSDKKLNELFEQYLIMREKKGKPVVGYQLKILIDRLNQVAANTKEKIEVVSNAIAGDWNTFYPIKR | 0.0685 |
| HMTKINAPMPGNILDVKVNVGDHVEANQLVLMLEAMKMENEIFTPVAGTVVGVHVKKGDSVNSDDLLISI | -1.09 |
| HMNITHEINVKSKSKIDFLENNKNLAQFFLTKNPNQFNYNLVFSDKSELNIIKEKIESHKDIEDIDIRYG | -1.11 |
| HMNEQKVSSLLTPRQLAFIDEYLIDFNGAQAAIRAGYSHKTAGPQAARLLVNVNISRMIAERIEARNK | -1.22 |
| HMAIELIDLIKNPETAPFSKLKYLKWMPEAEVTGFFNNLFQLNVTARETGDWSTVDKFLEDEGDRIAAQVA | -0.215 |
| HMDPTVTFIVQVNGRVRDKITLSSDISENEAKNVALESPKITPHISGKSLSRVIFVPGKLINLVV | 0.162 |

| Sequence | soluble fraction (log2) |
| --- | --- |
| HMVSSVAAISQMIDEKDRYTSEHSHRVAEYARLIGAHMGFAGEELDSLYRSALLHDIGKIAVPDAILNK | -0.417 |
| HMKRVVFFNGISWYHRTKELLDDMTTKYGKKGGFATPEEAEKSYWEYEERYKDRQRELQVAYLKN | -0.913 |
| HMELQYSQEIEEAQKILENLGLYRGEIDGINGINTKSAIREFQRKSGLVVDGILGPNTTNALSKGSDAYIT | 0.0515 |
| HMQISDSASVKTVVAEAIAANPKAVADFMNGKDTATRYLVGQVMKITKGQAKPELVNQLVLESLAELKEK | 0.226 |
| HMNFHLEHHIAELLYRSIRGELSDFERQELNQWRSDSPMHETLFMRLQDDEYIDEELGVFIK | -1.89 |
| HMEVVRVEPGATVRDLGEALGVPPTRIIQILMGLGEMKTVTQTLSTEEIELVAEELGRRVEV | -0.248 |
| HMLKKGDQVYIISGKDKGKLGVVSQIVSEERILVDGINLAKKHVKPNPNKNETGGVVEKEMPIHASNVMI | -0.702 |
| HMKKNLELGLLPHEVKSILGEPDFIDTITDIDGIRYDMWSYTKLNVTKRLYFEDLFLVRMEE | -1.42 |
| HMLYKNIAKKLRFRINSDEFAIGDVLPTERQLMEEYQASRVSIRKAIDELVAIDLIEKKQGSGTYIKQKEV | -0.493 |
| HMDRMINYSPIVAKVPQDDYTTKVYNIPIYSELTVVDKISEPEPLIAPIYRFKYITPEDEEIEFDIPV | -0.39 |
| HMRLHSSGEDYLKAIFILEAQHSSVRSVEVAEYMNVSKASVSHAVALLKKNGFLKMNQDYDLTER | -0.906 |
| HMHSEISGGSKDPFRFMPHLGVEDIHAETDRLSGSGVEFIREPDQESWGGWVATFKDPDGNILQLLQL | -0.0468 |
| HMKTYSEAQLKIALESLIENGKKQGYLTFQEINEILPDGIINTQDLKVIISILKETGIVVAKEKPEINIDV | 0.273 |
| HMTTYSVDLGDIRAVADSDGKLVELTLHAAVTTHYSHSELADRLNLAFTALREEAQADYETRY | -0.0597 |
| HMERLLVSKINGMITEAKVSVEDVVKVVASRGHYPEVKSIDEYPDDFLSRWVVPNFKKIVEMINANKEA | 0.239 |
| HMFNLFPHLSVLRNITLAPQKVKGLNRSESNEIAMSLLERVGIPEQSDKFPSQLSGGQQQRVAIARALAM | 0.22 |
| HMDTITMAGERYAVSDLEKVSGDIFEKAFGFEIDPKTADAKDVLPTMPKSDVDLFKKLSGIKP | -0.0953 |
| HMSEEKLVFSIPDDIETMRIDKAIALETHLSRAQIAELFKENKILLNSKNSKRSEKVKPGDKISLEFIPKI | -0.0612 |
| HMSDKLTLPVQINGVFRYTIEINPSMQKDEIIDLVKNEERTAKYKQDKEIKNVIVVPGKIVNIII | 0.22 |
| HMRHLSVPSQDTQQVLQRLKVELALPEGARVRSDPSDPGRRLIPFTESVPQEMIDQYPVVSINI | -0.458 |
| HMHLDIGQLVQRILADIQVGKLADGQRKLPAEPVLMERYQVTRYTLRQALKQLSNMGYTYQMHGIGTFVRQ | -0.211 |
| HMNFMDGFQSFFQESGAMNRPMTADVVSYRLPDGTVQQGNSTMRGLMDQYLKSIGQSPTTGVP | -0.176 |
| HMVDKDFKPLYASLERLDSTSIIEILDSNRIDYRIDQRSGALLVDADQIHQARLSLASAGMPA | -0.844 |
| HMGNRWENLISNKMIDDVDEELLRKYIAQAHDAGRIAISYTDRKTVLNQLELTDGDRLLNAGKVLFSD | -0.657 |
